In PMC2267071 one finds pKa data, which are given here for three proteins.

Data set [1] deals with His4 (position 4, --TESHHK---). The data set can be described thus: NMR. The note with it: 25 C; free peptide (no metal), 5 mM.
Data set [2] deals with His5 (position 5, -TESHHK----). The data set can be described thus: NMR. The note with it: 25 C; free peptide (no metal), 5 mM.
Data set [3] deals with Glu2 (position 2, ----TESHHK-). The experiment in a line: potentiometry. The note with it: 25 C; 0.1 M KNO3; free peptide (no metal).
Data set [4] deals with His4 (position 4, --TESHHK---). The data set can be described thus: potentiometry. The note with it: 25 C; 0.1 M KNO3; free peptide (no metal).
Data set [5] concerns the target His5 (position 5, -TESHHK----). The experiment in a line: potentiometry. The note with it: 25 C; 0.1 M KNO3; free peptide (no metal).
The target of data set [6] is Lys6 (position 6, TESHHK-----). The data set can be described thus: potentiometry. The note with it: 25 C, 0.1 M KNO3.
Data set [7] concerns the target His4 (position 4, --TEAHHK---). The experiment in a line: NMR. The note with it: 25 C; free peptide (no metal), 5 mM.
Data set [8] concerns the target His5 (position 5, -TEAHHK----). The experiment in a line: NMR. The note with it: 25 C; free peptide (no metal), 5 mM.
Data set [9] has as its target Glu2 (position 2, ----TEAHHK-). The experiment in a line: potentiometry. The note with it: 25 C; 0.1 M KNO3; free peptide (no metal).
Data set [10] deals with His4 (position 4, --TEAHHK---). The data set can be described thus: potentiometry. The note with it: 25 C; 0.1 M KNO3; free peptide (no metal).
For data set [11], the target named is His5 (position 5, -TEAHHK----). The data set can be described thus: potentiometry. The note with it: 25 C; 0.1 M KNO3; free peptide (no metal).
Data set [12] concerns the target Lys6 (position 6, TEAHHK-----). The experiment in a line: potentiometry. The note with it: 25 C, 0.1 M KNO3.
In data set [13] the target is His4 (position 4, --TASHHK---). The experiment in a line: NMR. The note with it: 25 C; free peptide (no metal), 5 mM.
In data set [14] the target is His5 (position 5, -TASHHK----). The experiment in a line: NMR. The note with it: 25 C; free peptide (no metal), 5 mM.
Data set [15] has as its target His4 (position 4, --TASHHK---). The experiment in a line: potentiometry. The note with it: 25 C; 0.1 M KNO3; free peptide (no metal).
The target of data set [16] is His5 (position 5, -TASHHK----). The experiment in a line: potentiometry. The note with it: 25 C; 0.1 M KNO3; free peptide (no metal).
Data set [17] has as its target Lys6 (position 6, TASHHK-----). The data set can be described thus: potentiometry. The note with it: 25 C; 0.1 M KNO3; free peptide (no metal).
Setting [18] is: Zn(II)-bound peptide (ZnH-1L to ZnH-2L step), peptide:Zn ratios 1:1 and 2:1.

“And” between values parts separate entries of the source, which are not always exact repeats. Equal values may be shown once.

With TESHHK, the pKa in data set [1] is 6.35 (I) and 6.12 (4); in data set [2] it was 6.41 (2) and 6.88 (5); in data set [3], 3.85; in data set [4] it was 5.90; in data set [5], 6.78; in data set [6] (setting [18]), 10.30. The protein further gave a pKa in [6] (free peptide (no metal)) of 10.28.
Take TEAHHK: the pKa in data set [7] is 6.42 (2) and 6.15 (3); in data set [8], 6.48 (2) and 6.72 (2); in data set [9] it was 4.10; in data set [10], 6.00; in [11] it was 6.68; in [12] (setting [18]), 10.34. In data set [12] (free peptide (no metal)), the pKa is 10.25.
As for TASHHK, the pKa in [13] is 6.29 (2) and 6.06 (3); in data set [14] it was 6.30 (2) and 6.61 (4); in data set [15], 5.74; in [16], 6.62; in [17], 10.48.
